Data as given in article PMC6239184, “Dynamic association of human mRNP proteins with mitochondrial tRNAs in the cytosol”.

B1: mt tRNAGly (structured_RNA)
RNA: ACUCUUUUAGUAUAAAUAGUACCGUUAACUUCCAAUUAACUAGUUUUGACAACAUUCAAAAAAGAGUACCA
B2: mt tRNALeu(UUR) (structured_RNA)
RNA: GUUAAGAUGGCAGAGCCCGGUAAUCGCAUAAAACUUAAAACUUUACAGUCAGAGGUUCAAUUCCUCUUCUUAACACCA

Experiments:
YBX3 = YBX3 (Homo sapiens, UniProt P16989 1-372); experiment: EMSA; EMSA: 1 fmol labeled RNA, 0.1-4 pmol protein, 5% native acrylamide gel; buffer, salt, pH, temperature not given (refers to Marnef et al. 2016); details: protein: recombinant, tags: Strep-tag (N-terminal, in 5' primer), Ni-NTA purified, tRNA fold
Chain of YBX3 (P16989 whole entry): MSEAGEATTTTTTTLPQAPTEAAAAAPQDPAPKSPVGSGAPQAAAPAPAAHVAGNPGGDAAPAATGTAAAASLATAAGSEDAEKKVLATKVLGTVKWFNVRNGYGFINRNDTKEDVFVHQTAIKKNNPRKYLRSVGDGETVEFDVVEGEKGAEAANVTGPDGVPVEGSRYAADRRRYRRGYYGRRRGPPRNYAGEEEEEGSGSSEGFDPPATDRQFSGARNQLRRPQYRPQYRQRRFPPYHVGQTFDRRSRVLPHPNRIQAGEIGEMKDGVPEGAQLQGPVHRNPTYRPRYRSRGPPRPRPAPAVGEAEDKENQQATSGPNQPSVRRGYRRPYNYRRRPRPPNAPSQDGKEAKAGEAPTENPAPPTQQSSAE

YBX1 = YBX1 (Homo sapiens, UniProt P67809 1-324); experiment: as above; details: protein: recombinant, tags: Strep-tag (N-terminal, in 5' primer), Ni-NTA purified, tRNA fold
Chain of YBX1 (P67809 whole entry): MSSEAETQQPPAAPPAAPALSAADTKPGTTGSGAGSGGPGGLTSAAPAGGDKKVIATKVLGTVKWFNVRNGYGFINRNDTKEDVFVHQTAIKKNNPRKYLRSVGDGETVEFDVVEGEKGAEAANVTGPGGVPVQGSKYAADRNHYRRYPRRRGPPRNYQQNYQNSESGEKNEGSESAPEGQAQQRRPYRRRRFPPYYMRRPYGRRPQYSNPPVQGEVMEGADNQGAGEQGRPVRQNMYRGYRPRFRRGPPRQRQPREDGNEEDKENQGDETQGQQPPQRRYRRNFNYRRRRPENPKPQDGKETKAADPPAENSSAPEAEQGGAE

| Binder | binding result (YBX3) | binding result (YBX1) | binding result (YBX3; label: internal 32P-CTP) | binding result (YBX1; label: internal 32P-CTP) |
| --- | --- | --- | --- | --- |
| B1 | binds | binds |  |  |
| B2 |  |  | binds | binds |
